Data on 17 molecules can be found in patent US20250145711A1 (Janssen / Centocor, published 2025).

The chains are these.
B1: CD3B2026 (scFv)
scFv: QVQLVQSGAEVKKPGSSVKVSCKASGYTFTRSTMHWVKQAPGQGLEWIGYINPSSAYTNYNQKFQGRVTLTADKSTSTAYMELSSLRSEDTAVYYCASPQVHYDYNGFPYWGQGTLVTVSSGGSEGKSSGSGSESKSTGGSEIVLTQSPATLSASPGERVTLSCSASSSVSYMNWYQQKPGTAPRRWIYDSSKLASGVPARFSGSGSGRDYTLTISSLEPEDFAVYYCQQWSRNPPTFGGGTKVEIK
B2: CD3B2050 (scFv)
scFv: QVQLVQSGAEVKKPGSSVKVSCKASGYTFTRSTMHWVKQAPGQGLEWMGYINPSSAYTNYNQKFQGRVTLTADKSTSTAYMELSSLRSEDTAVYYCASPQVHYDYNGFPYWGQGTLVTVSSGGSEGKSSGSGSESKSTGGSEIVLTQSPATLSASPGERVTLSCSASSSVSYMNWYQQKPGQSPRRLIYDSSKLASGVPARFSGSGSGRDYTLTISSLEPEDFAVYYCQQWSRNPPTFGGGTKVEIK
B3: CD3B2047 (scFv)
scFv: QVQLVQSGAEVKKPGSSVKVSCKASGYTFTRSTMHWVKQAPGQGLEWIGYINPSSAYTNYNQKFQGRVTLTADKSTSTAYMELSSLRSEDTAVYYCASPQVHYDYNGFPYWGQGTLVTVSSGGSEGKSSGSGSESKSTGGSEIVLTQSPATLSASPGERVTLSCSASSSVSYMNWYQQKPGQSPRRLIYDSSKLASGVPARFSGSGSGRDYTLTISSLEPEDFAVYYCQQWSRNPPTFGGGTKVEIK
B4: CD3B2032 (scFv)
scFv: QVQLVQSGAEVKKPGSSVKVSCKASGYTFTRSTMHWVKQAPGQGLEWMGYINPSSAYTNYNQKFQGRVTLTADKSTSTAYMELSSLRSEDTAVYYCASPQVHYDYNGFPYWGQGTLVTVSSGGSEGKSSGSGSESKSTGGSEIVLTQSPATLSASPGERVTLSCSASSSVSYMNWYQQKPGTSPRRLIYDSSKLASGVPARFSGSGSGRDYTLTISSLEPEDFAVYYCQQWSRNPPTFGGGTKVEIK
B5: CD3B2054 (scFv)
scFv: QVQLVQSGAEVKKPGSSVKVSCKASGYTFTRSTMHWVKQAPGQGLEWMGYINPSSAYTNYAQKFQGRVTLTADKSTSTAYMELSSLRSEDTAVYYCASPQVHYDYNGFPYWGQGTLVTVSSGGSEGKSSGSGSESKSTGGSEIVLTQSPATLSASPGERVTLSCSASSSVSYMNWYQQKPGQAPRRLIYDSSKLASGVPARFSGSGSGRDYTLTISSLEPEDFAVYYCQQWSRNPPTFGGGTKVEIK
B6: CD3B2028 (scFv)
scFv: QVQLVQSGAEVKKPGSSVKVSCKASGYTFTRSTMHWVKQAPGQGLEWIGYINPSSAYTNYNQKFQGRVTLTADKSTSTAYMELSSLRSEDTAVYYCASPQVHYDYNGFPYWGQGTLVTVSSGGSEGKSSGSGSESKSTGGSEIVLTQSPATLSASPGERVTLSCSASSSVSYMNWYQQKPGTAPRRLIYDSSKLASGVPARFSGSGSGRDYTLTISSLEPEDFAVYYCQQWSRNPPTFGGGTKVEIK
B7: CD3B2049 (scFv)
scFv: QVQLVQSGAEVKKPGSSVKVSCKASGYTFTRSTMHWVKQAPGQGLEWMGYINPSSAYTNYNQKFQGRVTLTADKSTSTAYMELSSLRSEDTAVYYCASPQVHYDYNGFPYWGQGTLVTVSSGGSEGKSSGSGSESKSTGGSEIVLTQSPATLSASPGERVTLSCSASSSVSYMNWYQQKPGTSPRRWIYDSSKLASGVPARFSGSGSGRDYTLTISSLEPEDFAVYYCQQWSRNPPTFGGGTKVEIK
B8: CD3B2040 (scFv)
scFv: QVQLVQSGAEVKKPGSSVKVSCKASGYTFTRSTMHWVKQAPGQGLEWMGYINPSSAYTNYAQKFQGRVTLTADKSTSTAYMELSSLRSEDTAVYYCASPQVHYDYNGFPYWGQGTLVTVSSGGSEGKSSGSGSESKSTGGSEIVLTQSPATLSASPGERVTLSCSASSSVSYMNWYQQKPGQAPRRWIYDSSKLASGVPARFSGSGSGRDYTLTISSLEPEDFAVYYCQQWSRNPPTFGGGTKVEIK
B9: CD3B2036 (scFv)
scFv: QVQLVQSGAEVKKPGSSVKVSCKASGYTFTRSTMHWVKQAPGQGLEWMGYINPSSAYTNYAQKFQGRVTLTADKSTSTAYMELSSLRSEDTAVYYCASPQVHYDYNGFPYWGQGTLVTVSSGGSEGKSSGSGSESKSTGGSEIVLTQSPATLSASPGERVTLSCSASSSVSYMNWYQQKPGTAPRRWIYDSSKLASGVPARFSGSGSGRDYTLTISSLEPEDFAVYYCQQWSRNPPTFGGGTKVEIK
B10: CD3B2052 (scFv)
scFv: QVQLVQSGAEVKKPGSSVKVSCKASGYTFTRSTMHWVKQAPGQGLEWMGYINPSSAYTNYAQKFQGRVTLTADKSTSTAYMELSSLRSEDTAVYYCASPQVHYDYNGFPYWGQGTLVTVSSGGSEGKSSGSGSESKSTGGSEIVLTQSPATLSASPGERVTLSCSASSSVSYMNWYQQKPGTSPRRWIYDSSKLASGVPARFSGSGSGRDYTLTISSLEPEDFAVYYCQQWSRNPPTFGGGTKVEIK
B11: CD3B2056 (scFv)
scFv: QVQLVQSGAEVKKPGSSVKVSCKASGYTFTRSTMHWVRQAPGQGLEWIGYINPSSAYTNYNQKFQGRVTLTADKSTSTAYMELSSLRSEDTAVYYCASPQVHYDYNGFPYWGQGTLVTVSSGGSEGKSSGSGSESKSTGGSEIVLTQSPATLSASPGERVTLSCSASSSVSYMNWYQQKPGQSPRRLIYDSSKLASGVPARFSGSGSGRDYTLTISSLEPEDFAVYYCQQWSRNPPTFGGGTKVEIK
B12: CD3B2057 (scFv)
scFv: QVQLVQSGAEVKKPGSSVKVSCKASGYTFTRSTMHWVRQAPGQGLEWIGYINPSSAYTNYNQKFQGRVTLTADKSTSTAYMELSSLRSEDTAVYYCASPQVHYDYNGFPYWGQGTLVTVSSGGSEGKSSGSGSESKSTGGSEIVLTQSPATLSASPGERVTLSCSASSSVSYMNWYQQKPGQAPRRLIYDSSKLASGVPARFSGSGSGRDYTLTISSLEPEDFAVYYCQQWSRNPPTFGGGTKVEIK
B13: CD3B2055 (scFv)
scFv: QVQLVQSGAEVKKPGSSVKVSCKASGYTFTRSTMHWVRQAPGQGLEWIGYINPSSAYTNYNQKFQGRVTLTADKSTSTAYMELSSLRSEDTAVYYCASPQVHYDYNGFPYWGQGTLVTVSSGGSEGKSSGSGSESKSTGGSEIVLTQSPATLSASPGERVTLSCSASSSVSYMNWYQQKPGTSPRRWIYDSSKLASGVPARFSGSGSGRDYTLTISSLEPEDFAVYYCQQWSRNPPTFGGGTKVEIK
B14: CD3B2053 (scFv)
scFv: QVQLVQSGAEVKKPGSSVKVSCKASGYTFTRSTMHWVKQAPGQGLEWMGYINPSSAYTNYAQKFQGRVTLTADKSTSTAYMELSSLRSEDTAVYYCASPQVHYDYNGFPYWGQGTLVTVSSGGSEGKSSGSGSESKSTGGSEIVLTQSPATLSASPGERVTLSCSASSSVSYMNWYQQKPGQSPRRLIYDSSKLASGVPARFSGSGSGRDYTLTISSLEPEDFAVYYCQQWSRNPPTFGGGTKVEIK
B15: CD3B2027 (scFv)
scFv: QVQLVQSGAEVKKPGSSVKVSCKASGYTFTRSTMHWVKQAPGQGLEWIGYINPSSAYTNYNQKFQGRVTLTADKSTSTAYMELSSLRSEDTAVYYCASPQVHYDYNGFPYWGQGTLVTVSSGGSEGKSSGSGSESKSTGGSEIVLTQSPATLSASPGERVTLSCSASSSVSYMNWYQQKPGTSPRRLIYDSSKLASGVPARFSGSGSGRDYTLTISSLEPEDFAVYYCQQWSRNPPTFGGGTKVEIK
B16: CD3B2046 (scFv)
scFv: QVQLVQSGAEVKKPGSSVKVSCKASGYTFTRSTMHWVKQAPGQGLEWIGYINPSSAYTNYNQKFQGRVTLTADKSTSTAYMELSSLRSEDTAVYYCASPQVHYDYNGFPYWGQGTLVTVSSGGSEGKSSGSGSESKSTGGSEIVLTQSPATLSASPGERVTLSCSASSSVSYMNWYQQKPGTSPRRWIYDSSKLASGVPARFSGSGSGRDYTLTISSLEPEDFAVYYCQQWSRNPPTFGGGTKVEIK
B17: CD3B2048 (scFv)
scFv: QVQLVQSGAEVKKPGSSVKVSCKASGYTFTRSTMHWVKQAPGQGLEWIGYINPSSAYTNYNQKFQGRVTLTADKSTSTAYMELSSLRSEDTAVYYCASPQVHYDYNGFPYWGQGTLVTVSSGGSEGKSSGSGSESKSTGGSEIVLTQSPATLSASPGERVTLSCSASSSVSYMNWYQQKPGQAPRRLIYDSSKLASGVPARFSGSGSGRDYTLTISSLEPEDFAVYYCQQWSRNPPTFGGGTKVEIK

The target of this experiment is T1, TRCW5 antigen (CD3δε-Fc-Avi) (biotinylated (site not stated)).
T1 construct: also called recombinant CD3
T1 sequence (chain, as listed by the source mutant limits assumed): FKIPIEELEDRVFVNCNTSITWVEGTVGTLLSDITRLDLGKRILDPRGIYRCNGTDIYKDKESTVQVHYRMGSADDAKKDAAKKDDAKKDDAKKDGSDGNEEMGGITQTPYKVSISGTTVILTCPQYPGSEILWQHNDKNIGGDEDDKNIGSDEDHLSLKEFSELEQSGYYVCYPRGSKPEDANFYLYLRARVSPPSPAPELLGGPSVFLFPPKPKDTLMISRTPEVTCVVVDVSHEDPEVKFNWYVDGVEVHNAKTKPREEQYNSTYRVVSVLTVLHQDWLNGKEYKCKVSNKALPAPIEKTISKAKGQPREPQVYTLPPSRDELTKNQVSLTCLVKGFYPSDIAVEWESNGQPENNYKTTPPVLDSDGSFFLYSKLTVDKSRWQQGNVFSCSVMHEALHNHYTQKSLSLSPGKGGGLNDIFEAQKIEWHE
As to the kind of experiment: ELISA after heat.
Consider B1, for which the “% Retained 55° C.” value worked out at 106%, the “% Retained 60° C.” value amounted to 98% and the “% Retained 65° C.” value was determined as 29%.
On the same counts, the results for B2 are 108%, 102% and 41%.
For B3 the same measures were 106%, 98% and 15%.
On the same counts, the results for B4 are 106%, 88% and 20%.
With B5, the “% Retained 55° C.” value amounted to 106%, the “% Retained 60° C.” value is 100% and the “% Retained 65° C.” value worked out at 23%.
For B6 the same measures were 104%, 92% and 15%.
On the same counts, the results for B7 are 108%, 105% and 29%.
For B8 the same measures were 107%, 106% and 52%.
B9: the “% Retained 55° C.” value was 108%, the “% Retained 60° C.” value was 105% and the “% Retained 65° C.” value came out at 35%.
On the same counts, the results for B10 are 112%, 111% and 25%.
For B11 the same measures were 101%, 80% and 9%.
Turning to B12, the “% Retained 55° C.” value stood at 92%, the “% Retained 60° C.” value amounted to 66% and the “% Retained 65° C.” value came out at 3%.
For the molecule B13, the “% Retained 55° C.” value stood at 102%, the “% Retained 60° C.” value came out at 96% and the “% Retained 65° C.” value came to 11%.
Regarding B14, the “% Retained 55° C.” value was determined as 115%, the “% Retained 60° C.” value worked out at 112% and the “% Retained 65° C.” value amounted to 30%.
For the molecule B15, the “% Retained 55° C.” value came out at 104%, the “% Retained 60° C.” value was determined as 93% and the “% Retained 65° C.” value was found to be 9%.
Regarding B16, the “% Retained 55° C.” value is 111%, the “% Retained 60° C.” value amounted to 113% and the “% Retained 65° C.” value was determined as 30%.
On the same counts, the results for B17 are 105%, 95% and 22%.
